Data taken from patent publication US20190330320A1.

Biological target: hyperphosphorylated human tau P301L (4R0N) from rTg4510 mouse brain (64 and 70 kDa species) (human) (UniProt P10636)
Assay: binding to P301L human mutant tau isolated from 10 month old Tg4510 mice

hyperphosphorylated human tau P301L (4R0N) from rTg4510 mouse brain (64 and 70 kDa species) (human), sequence (P10636 other isoform, or with tags, fused parts or gaps P301L P301L): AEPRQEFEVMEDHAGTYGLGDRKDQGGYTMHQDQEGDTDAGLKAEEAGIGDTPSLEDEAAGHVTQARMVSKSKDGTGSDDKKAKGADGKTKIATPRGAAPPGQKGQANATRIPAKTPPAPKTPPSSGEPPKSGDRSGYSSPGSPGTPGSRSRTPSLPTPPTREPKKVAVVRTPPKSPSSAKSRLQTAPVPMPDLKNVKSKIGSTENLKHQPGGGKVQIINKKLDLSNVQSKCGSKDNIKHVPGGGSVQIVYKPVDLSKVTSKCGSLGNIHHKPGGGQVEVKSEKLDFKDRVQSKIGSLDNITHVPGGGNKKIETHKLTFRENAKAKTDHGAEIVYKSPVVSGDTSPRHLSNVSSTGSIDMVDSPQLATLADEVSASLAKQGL

TG/wt (binding to P301L tau from Tg4510 mice over wild type): 1
B1: 4E4 (antibody, from another filing, V domains shown)
VH: EVQLVESGGGLVQPGGSLKLSCAASGFNFNISAIHWVRQASGKGLEWVGRIRSKSHNYATLYAASLKGRFTLSRDDSRNTAYLQMSSLQTEDMAVYYCTVLSANYDTFDYWGQGTLVTVSS
VL: SYELTQPPSVSVSPGQTARISCFGDTLPKQYTYWYQQKPGQAPVLVIYKDTERPSGIPERFSGSSSGTTVTLTISGVQAEDEADYYCLSADNSATWVFGGGTKVTVL
